From patent publication US20240092897A1 (SHANGHAI JMT BIO TECHNOLOGY, published 2024)

T1: Human Siglec-15, His Tag (human Siglec-15 full-length extracellular domain linked with His tag) (human, UniProt Q6ZMC9 20-263)
T1 construct: Bought from ACROBiosystems; also called Siglec-15 protein; SG5-H52H3
T1 sequence: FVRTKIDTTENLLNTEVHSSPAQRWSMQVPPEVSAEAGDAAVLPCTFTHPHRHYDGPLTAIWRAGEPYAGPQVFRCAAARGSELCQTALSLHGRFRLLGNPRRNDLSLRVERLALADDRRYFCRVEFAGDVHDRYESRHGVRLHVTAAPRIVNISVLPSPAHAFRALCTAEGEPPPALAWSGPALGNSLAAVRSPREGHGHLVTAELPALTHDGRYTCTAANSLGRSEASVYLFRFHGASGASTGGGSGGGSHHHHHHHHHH

B1: 174C11C9-hH2L2 (antibody, IgG1, V domains shown)
VH: QVQLVQSGAEVKKPGASVKVSCKASGYIFTDYYMNWVRQAPGQGLEWIGVFNPYSGGISYNQKFKGRVTLTVDTSTSTAYMELSSLRSEDTAVYYCARDYYYLSSHGFYALDYWGQGTTVTVSS
VL: DIQLTQSPSSLSASVGDRVTITCRASESVDSYGNSFIHWYQQKPGKAPKLLMYRASNLESGIPSRFSGSGSGTDFTLTISSLQPEDFATYYCQQSNEDPLTFGQGTKLEIK
notes: Humanized; hIgG1, Kappa
B2: 174C11C9-hH3L3 (antibody, IgG1, V domains shown)
VH: QVQLVQSGAEVKKPGASVKVSCKASGYIFTDYYMNWVRQAPGQGLEWIGVFNPYSGGISYAQKFKGRVTLTVDTSTSTAYMELSSLRSEDTAVYYCARDYYYLSSHGFYALDYWGQGTTVTVSS
VL: DIQLTQSPSSLSASVGDRVTITCRASESVDSYGNSFIHWYQQKPGKAPKLLMYRASNLESGVPSRFSGSGSGTDFTLTISSLQPEDFATYYCQQSNEDPLTFGQGTKLEIK
notes: Humanized; hIgG1, Kappa
B3: 21F6C6-hH2L3 (antibody, IgG1, V domains shown)
VH: EVQLVESGGGLVKPGGSLRLSCAASGFTFSSYAMSWVRQAPGKGLEWVATISSGGSLIYYADSVTGRFTISRDNAKNTLYLQMNSLRAEDTAVYYCVRHGYYYGDSTLYYAMDYWGQGTTVTVSS
VL: DIQLTQSPSSLSASVGDRVTITCRASQSVDYDGDSYMNWYQQKPGKAPKLLIYAASNLESGVPSRFSGSGSGTDFTLTISSLQPEDFATYYCQQSNEAPLTFGQGTKLEIK
notes: Humanized; hIgG1, Kappa
B4: 21F6C6-hH1L1 (antibody, IgG1, V domains shown)
VH: EVQLVESGGGLVKPGGSLRLSCAASGFTFSSYAMSWVRQAPGKGLEWVATISSGGSLIYYPDSVTGRFTISRDNAKSTLYLQMNSLRAEDTAVYYCVRHGYYYGDSTLYYAMDYWGQGTTVTVSS
VL: DIQLTQSPSSLSASVGDRATITCRASQSVDYDGDSYMNWYQQKPGKAPKLLIYAASNLESGIPARFSGSGSGTDFTLTISSVQPEDFATYYCQQSNEAPLTFGQGTKLEIK
notes: Humanized; hIgG1 heavy chain constant region, Kappa light chain constant region
B5: 21F6C6-hH2L2 (antibody, IgG1, V domains shown)
VH: EVQLVESGGGLVKPGGSLRLSCAASGFTFSSYAMSWVRQAPGKGLEWVATISSGGSLIYYADSVTGRFTISRDNAKNTLYLQMNSLRAEDTAVYYCVRHGYYYGDSTLYYAMDYWGQGTTVTVSS
VL: DIQLTQSPSSLSASVGDRATITCRASQSVDYDGDSYMNWYQQKPGKAPKLLIYAASNLESGVPSRFSGSGSGTDFTLTISSVQPEDFATYYCQQSNEAPLTFGQGTKLEIK
notes: Humanized; hIgG1, Kappa
B6: 21F6C6-hH2L4 (antibody, IgG1, V domains shown)
VH: EVQLVESGGGLVKPGGSLRLSCAASGFTFSSYAMSWVRQAPGKGLEWVATISSGGSLIYYADSVTGRFTISRDNAKNTLYLQMNSLRAEDTAVYYCVRHGYYYGDSTLYYAMDYWGQGTTVTVSS
VL: DIQMTQSPSSLSASVGDRVTITCRASQSVDYDGDSYMNWYQQKPGKAPKLLIYAASNLQSGVPSRFSGSGSGTDFTLTISSLQPEDFATYYCQQSNEAPLTFGQGTKLEIK
notes: Humanized; hIgG1, Kappa
B7: 21F6C6-hH2L4V (antibody, IgG1, V domains shown)
VH: EVQLVESGGGLVKPGGSLRLSCAASGFTFSSYAMSWVRQAPGKGLEWVATISSGGSLIYYADSVTGRFTISRDNAKNTLYLQMNSLRAEDTAVYYCVRHGYYYGDSTLYYAMDYWGQGTTVTVSS
VL: DIQMTQSPSSLSASVGDRVTITCRASQSVDYEGDSYMNWYQQKPGKAPKLLIYAASNLQSGVPSRFSGSGSGTDFTLTISSLQPEDFATYYCQQSNEAPLTFGQGTKLEIK
notes: Humanized; hIgG1, Kappa
B8: 124B11F6-hH1L1 (antibody, IgG1, V domains shown)
VH: QVQLVQSGAEVKKPGASVKVSCKASVFNIKDYYMHWVRQAPGQGLEWIGRIDPEDDKTKYAPKFQGRATITADTSTNTAYLELSSLRSEDTAVYYCVRGWLGYIMDFWGQGTTVTVSS
VL: QLVLTQSPSASFSLGASAKLTCTLSSQHSTYTIDWYQQQPEKGPRYVMELKEDGSHSTGDGIPDRFSGSSSGAERYLTISSIQSEDEADYICGVGATIKEQFVYVFGGGTKVTVL
notes: Humanized; hIgG1 heavy chain constant region, Lambda-C2 light chain constant region
B9: 124B11F6-hH2L2 (antibody, IgG1, V domains shown)
VH: QVQLVQSGAEVKKPGASVKVSCKASVFNIKDYYMHWVRQAPGQGLEWIGRIDPEDDKTKYAPKFQGRVTITADTSTSTAYLELSSLRSEDTAVYYCVRGWLGYIMDFWGQGTTVTVSS
VL: QLVLTQSPSASASLGASVKLTCTLSSQHSTYTIDWYQQQPEKGPRYVMELKEDGSHSTGDGIPDRFSGSSSGAERYLTISSLQSEDEADYICGVGATIKEQFVYVFGGGTKVTVL
notes: Humanized; hIgG1, Lambda

Target: T1, Human Siglec-15, His Tag (human …)
Test: SPR Biacore, antibody captured by anti-human Fc on CM5, Siglec-15 protein as analyte

Row | Binder | Kd [nM] | koff [s⁻¹] | kon [M⁻¹ s⁻¹]
1 | B1 | 0.325 | 0.000447 | 1.37e+06
2 | B2 | 0.614 | 0.000482 | 785000
3 | B3 | 0.0724 | 0.000353 | 4.87e+06
4 | B4 | 0.0806 | 0.000341 | 4.23e+06
5 | B5 | 0.0683 | 0.000314 | 4.59e+06
6 | B6 | 0.0856 | 0.000414 | 4.84e+06
7 | B7 | 0.114 | 0.000184 | 1.61e+06
8 | B8 | 0.109 | 0.000127 | 1.17e+06
9 | B9 | 0.202 | 0.000224 | 1.11e+06
